Target: recombinant DR4 extracellular domain (UniProt O00220)
Sequence (O00220 24-239): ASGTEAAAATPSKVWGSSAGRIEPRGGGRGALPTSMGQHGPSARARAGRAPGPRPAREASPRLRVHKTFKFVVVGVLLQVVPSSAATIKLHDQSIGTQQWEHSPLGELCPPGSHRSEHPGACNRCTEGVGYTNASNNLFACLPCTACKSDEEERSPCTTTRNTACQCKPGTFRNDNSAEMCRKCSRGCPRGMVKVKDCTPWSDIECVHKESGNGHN

decrease of surface DR4 on HCT116 and HT-29 cells with 1,000 ng/ml TRAIL, time course, flow cytometry: 90%
Substance: TRAIL (tumor necrosis factor-associated ligand inducing apoptosis), recombinant, amino acid residues 114-280 (from UniProt P50591 114-280)

— publication PMC8514705
